Experimental data published in patent US20060134741.

T1: Sentrinized PML (construct not stated), P29590
T1 chain: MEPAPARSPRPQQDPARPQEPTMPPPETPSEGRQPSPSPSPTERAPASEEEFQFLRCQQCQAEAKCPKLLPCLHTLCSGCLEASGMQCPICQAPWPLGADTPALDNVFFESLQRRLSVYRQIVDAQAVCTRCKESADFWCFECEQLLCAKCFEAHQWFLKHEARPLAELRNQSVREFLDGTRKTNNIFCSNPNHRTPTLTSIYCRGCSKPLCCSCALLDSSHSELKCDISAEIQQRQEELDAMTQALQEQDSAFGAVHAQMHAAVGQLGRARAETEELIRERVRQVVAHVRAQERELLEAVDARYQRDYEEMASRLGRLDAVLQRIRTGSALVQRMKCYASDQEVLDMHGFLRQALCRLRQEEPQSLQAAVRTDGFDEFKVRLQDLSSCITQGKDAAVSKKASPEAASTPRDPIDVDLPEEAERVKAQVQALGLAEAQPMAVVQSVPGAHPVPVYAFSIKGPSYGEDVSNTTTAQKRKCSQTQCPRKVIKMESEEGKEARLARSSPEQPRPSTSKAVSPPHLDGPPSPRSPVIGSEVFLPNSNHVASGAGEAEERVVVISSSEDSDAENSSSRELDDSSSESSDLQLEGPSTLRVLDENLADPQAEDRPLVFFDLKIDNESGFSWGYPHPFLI

T2: sentrinized RanGAP (construct not stated), P46060
T2 chain: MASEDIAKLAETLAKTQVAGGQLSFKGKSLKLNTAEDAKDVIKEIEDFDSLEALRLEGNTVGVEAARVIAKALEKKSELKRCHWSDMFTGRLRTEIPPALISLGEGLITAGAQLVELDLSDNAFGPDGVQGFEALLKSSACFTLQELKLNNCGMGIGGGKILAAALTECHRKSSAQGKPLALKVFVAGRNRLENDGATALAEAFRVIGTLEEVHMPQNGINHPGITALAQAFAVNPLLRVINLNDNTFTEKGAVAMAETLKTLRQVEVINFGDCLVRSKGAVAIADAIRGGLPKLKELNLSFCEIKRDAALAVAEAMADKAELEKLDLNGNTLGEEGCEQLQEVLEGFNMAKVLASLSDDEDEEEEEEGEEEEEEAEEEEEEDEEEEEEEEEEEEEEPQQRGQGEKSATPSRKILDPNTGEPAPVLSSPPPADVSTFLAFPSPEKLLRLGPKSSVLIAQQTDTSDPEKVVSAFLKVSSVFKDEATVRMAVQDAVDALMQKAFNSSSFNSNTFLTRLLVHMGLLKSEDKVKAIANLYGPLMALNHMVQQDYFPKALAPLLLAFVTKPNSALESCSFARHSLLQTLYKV


Key:
[1] = tested on: sentrin-modified proteins (Sentrin-1 conjugates)
[2] = target: T1, Sentrinized PML (construct not stated), …
[3] = target: T2, sentrinized RanGAP (construct not …)

Molecule	protease activity against sentrin-modified proteins [1]	effect on sentrinized PML [2]	effect on sentrinized RanGAP [3]
HsUlp1 (full length, 371 aa)	extensive studies indicated that HsUlp I had no activity against sentrin-modified proteins	–	–
SENP2 (protein) MVTSACNGTRNVAPSGEVFSNSSSCELTGSGSWNNMLKLGNKSPNGISDYPKIRVTVTRDQPRRVLPSFGFTLNSEGCNRRPGGRRHSKGNPESSLMWKPQEQAVTEMISEESGKGLRRPHCTVEEGVQKEEREKYRKLLERLKESGHGNSVCPVTSNYHSSQRSQMDTLKTKGWGEEQNHGVKTTQFVPKQYRLVETRGPLCSLRSEKRCSKGKITDTEKMVGIRFENESRRGYQLEPDLSEEVSARLRLGSGSNGLLRRKVSIIETKEKNCSGKERDRRTDDLLELTEDMEKEISNALGHGPQDEILSSAFKLRITRGDIQTLKNYHWLNDEVINFYMNLLVERNKKQGYPALHVFSTFFYPKLKSGGYQAVKRWTKGVNLFEQEIILVPIHRKVHWSLVVIDLRKKCLKYLDSMGQKGHRICEILLQYLQDESKTKRNSDLNLLEWTHHSMKPHEIPQQLNGSDCGMFTCKYADYISRDKPITFTQHQMPLFRKKMVWEILHQQLL	–	Sentrinized PML, a tumor suppressor that resides in the nucleus, was selectively affected by SENP2	sentrinized RanGAP remained intact
